From patent publication EP2585123B1 (Planton GmbH, dated 2014)
Ends that are not written are not given here.

Target: collagen scaffold (bovine collagen type I) (bovine, UniProt P02453 162-1217; P02465 80-1117)
Test: cell-based or functional assay

collagen scaffold (bovine collagen type I), sequence (P02453 162-1217, chain 1 of 2): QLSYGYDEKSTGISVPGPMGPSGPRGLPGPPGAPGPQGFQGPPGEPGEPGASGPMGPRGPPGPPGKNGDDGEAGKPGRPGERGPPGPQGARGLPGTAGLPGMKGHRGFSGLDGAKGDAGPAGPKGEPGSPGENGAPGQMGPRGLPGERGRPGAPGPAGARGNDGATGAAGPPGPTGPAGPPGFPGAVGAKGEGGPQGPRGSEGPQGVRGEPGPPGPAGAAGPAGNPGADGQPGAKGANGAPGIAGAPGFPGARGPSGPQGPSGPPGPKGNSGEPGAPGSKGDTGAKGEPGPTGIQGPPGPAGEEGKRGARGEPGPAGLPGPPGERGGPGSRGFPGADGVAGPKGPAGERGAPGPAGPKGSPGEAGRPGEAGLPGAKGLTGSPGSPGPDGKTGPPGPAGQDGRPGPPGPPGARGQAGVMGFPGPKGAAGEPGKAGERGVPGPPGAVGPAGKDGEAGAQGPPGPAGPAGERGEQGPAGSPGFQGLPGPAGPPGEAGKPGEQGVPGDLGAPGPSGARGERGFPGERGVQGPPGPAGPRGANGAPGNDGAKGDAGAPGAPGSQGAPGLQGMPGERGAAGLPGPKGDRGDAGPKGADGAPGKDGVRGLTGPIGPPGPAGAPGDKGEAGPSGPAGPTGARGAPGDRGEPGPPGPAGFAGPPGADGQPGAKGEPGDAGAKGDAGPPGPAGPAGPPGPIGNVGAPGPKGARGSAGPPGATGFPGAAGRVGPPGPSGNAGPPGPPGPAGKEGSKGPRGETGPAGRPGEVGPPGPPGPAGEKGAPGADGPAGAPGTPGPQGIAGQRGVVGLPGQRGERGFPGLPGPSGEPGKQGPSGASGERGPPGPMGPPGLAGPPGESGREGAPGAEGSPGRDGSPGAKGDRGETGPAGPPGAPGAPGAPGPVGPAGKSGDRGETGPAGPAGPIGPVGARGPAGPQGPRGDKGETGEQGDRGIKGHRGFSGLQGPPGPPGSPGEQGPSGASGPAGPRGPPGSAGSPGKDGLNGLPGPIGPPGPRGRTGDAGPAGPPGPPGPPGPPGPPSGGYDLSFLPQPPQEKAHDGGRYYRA
collagen scaffold (bovine collagen type I), sequence (P02465 80-1117, chain 2 of 2): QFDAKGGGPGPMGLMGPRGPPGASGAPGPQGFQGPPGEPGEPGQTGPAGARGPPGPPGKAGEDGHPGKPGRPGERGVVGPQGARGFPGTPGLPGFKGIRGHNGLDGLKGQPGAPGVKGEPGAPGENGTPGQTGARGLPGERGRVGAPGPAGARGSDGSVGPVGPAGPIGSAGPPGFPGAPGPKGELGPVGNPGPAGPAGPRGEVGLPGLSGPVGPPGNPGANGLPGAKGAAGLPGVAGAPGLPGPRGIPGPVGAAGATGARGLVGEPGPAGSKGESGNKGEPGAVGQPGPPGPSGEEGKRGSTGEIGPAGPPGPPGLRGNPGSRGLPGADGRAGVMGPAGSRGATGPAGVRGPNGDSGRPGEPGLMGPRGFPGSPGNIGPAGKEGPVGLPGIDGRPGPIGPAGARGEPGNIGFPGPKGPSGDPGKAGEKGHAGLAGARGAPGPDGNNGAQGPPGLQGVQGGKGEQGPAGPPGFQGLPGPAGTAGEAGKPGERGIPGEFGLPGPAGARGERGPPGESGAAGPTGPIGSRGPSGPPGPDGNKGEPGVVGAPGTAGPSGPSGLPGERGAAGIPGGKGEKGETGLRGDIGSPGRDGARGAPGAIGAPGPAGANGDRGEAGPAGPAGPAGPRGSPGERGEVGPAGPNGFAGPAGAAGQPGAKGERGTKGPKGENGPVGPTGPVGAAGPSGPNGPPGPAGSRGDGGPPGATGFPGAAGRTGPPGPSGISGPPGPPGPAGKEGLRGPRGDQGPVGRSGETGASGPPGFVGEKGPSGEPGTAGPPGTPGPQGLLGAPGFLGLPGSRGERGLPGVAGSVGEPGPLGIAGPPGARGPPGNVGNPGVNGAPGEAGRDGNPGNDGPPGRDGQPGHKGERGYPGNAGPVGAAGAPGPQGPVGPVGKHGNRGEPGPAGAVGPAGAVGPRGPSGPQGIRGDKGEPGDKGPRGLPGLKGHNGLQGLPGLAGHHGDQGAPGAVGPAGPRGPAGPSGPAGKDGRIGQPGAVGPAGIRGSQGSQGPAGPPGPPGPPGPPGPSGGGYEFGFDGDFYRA

hBD2 released by the collagen scaffold (agar diffusion assay, zone of inhibition, 10 µg hβD2): 40%
hBD2 retarded by the collagen scaffold (agar diffusion assay, zone of inhibition, 10 µg hβD2): 60%
Binder: GIGDPVTCLKSGAICHPVFCPRRYKQIGTCGLPGTKCCKKP (ends and bridges not checked; cysteine pairing not given here) [human β-defensin-2]
killing of the bacteria, collagen scaffold treated with 5 µg HAS, 4 µg hβD2, microdilution assay: 100%
killing rate, collagen scaffold treated with 5 µg BSA, 4 µg hβD2, microdilution assay: 98%
killing rate, collagen scaffold without gelatine (unblocked), 4 µg hβD2, microdilution assay: 86%
killing, collagen scaffold pre-treated with 10 µl of a 0.1% gelatine solution, 4 µg hβD2, microdilution assay: 94%
